Experimental data taken from patent US20190300623A1 (POLYTHERICS, published 2019).
Numbering of substitutions follows the chain as printed. Where two headings read alike, the source gives them in different places. Values belong to the binder of their own block, whether it stands above or below them.

Key:
[1] = molecular target: PSMA on PSMA-positive LNCaP (clone FGC) and C4-2 cells; assay: cell-based or functional assay
[2] = molecular target: T1, recombinant human PSMA (R&D Systems) (human, UniProt Q04609 44-750); assay: SPR (Biacore T200), antibody captured on Protein A chip, recombinant human PSMA as analyte, 25 C
T1 construct: Bought protein used as the Biacore analyte; also called PSMA antigen; PSMA analyte

[3] = molecular target: T1, recombinant human PSMA (R&D Systems); assay: SPR (Biacore T200), relative to AB-01 on the same chip
[4] = molecular target: T1, recombinant human PSMA (R&D Systems); assay: SPR (Biacore T200), antibody captured on Protein A chip, recombinant human PSMA as analyte, 25 C; remark: listed apart in the source
[5] = molecular target: T1, recombinant human PSMA (R&D Systems); assay: as above; remark: listed apart in the source

T1 sequence (Q04609 44-750 limits assumed): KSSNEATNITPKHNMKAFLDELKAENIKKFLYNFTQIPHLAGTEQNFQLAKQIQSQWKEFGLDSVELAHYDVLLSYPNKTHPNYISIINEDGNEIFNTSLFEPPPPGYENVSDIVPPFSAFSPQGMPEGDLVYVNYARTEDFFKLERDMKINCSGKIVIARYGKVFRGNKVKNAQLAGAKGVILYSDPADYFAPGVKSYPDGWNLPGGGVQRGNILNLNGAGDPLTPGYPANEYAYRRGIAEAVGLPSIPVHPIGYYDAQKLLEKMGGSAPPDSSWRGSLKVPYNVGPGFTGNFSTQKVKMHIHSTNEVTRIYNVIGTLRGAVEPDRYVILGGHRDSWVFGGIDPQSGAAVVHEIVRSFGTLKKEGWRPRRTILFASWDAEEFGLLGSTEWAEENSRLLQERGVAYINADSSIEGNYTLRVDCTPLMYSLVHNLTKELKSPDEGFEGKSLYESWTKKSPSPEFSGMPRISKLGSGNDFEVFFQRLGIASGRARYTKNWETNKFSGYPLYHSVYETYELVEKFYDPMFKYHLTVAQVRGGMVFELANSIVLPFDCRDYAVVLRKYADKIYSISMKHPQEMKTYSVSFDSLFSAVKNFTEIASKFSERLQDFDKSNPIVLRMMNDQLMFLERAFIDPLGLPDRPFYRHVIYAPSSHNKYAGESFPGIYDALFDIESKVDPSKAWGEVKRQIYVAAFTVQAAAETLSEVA

B1: AB-02-mc-val-cit-PAB-MMAE (antibody, human IgG1, V domains shown)
VH: EVQLVQSGAEVKKPGASVKVSCKASGYTFTEYTIHWVRQAPGKGLEWIGNINPNNGGTTYNQKFEDRVTITVDKSTSTAYMELSSLRSEDTAVYYCAAYWLFDYWGQGTTVTVSS
VL: DIQMTQSPSTLSASVGDRVTITCKASQDVGTAVDWYQQKPGQAPKLLIYWASTRHTGVPDRFSGSGSGTDFTLTISRLQPEDFAVYYCQQYNSYPLTFGQGTKVDIK
modifications: mc-val-cit-PAB-MMAE (maleimide reagent) conjugated after TCEP reduction; average DAR 3.5 (±0.2); attachment residues not given
IC50 (nM), anti-proliferative effect on C4-2 cells (CellTiter Glo viability) [1]: 0.18 nM
IC50 (nM), anti-proliferative effect on LNCaP cells (CellTiter Glo viability) [1]: 0.61 nM

B2: AB-05-mc-val-cit-PAB-MMAE (antibody, human IgG1, V domains shown)
VH: B1 VH
VL: B1 VL with S93A, P95S
modifications: mc-val-cit-PAB-MMAE (maleimide reagent) conjugated after TCEP reduction; average DAR 3.5 (±0.2); attachment residues not given
IC50 (nM), anti-proliferative effect on C4-2 cells (CellTiter Glo viability) [1]: 0.41 nM
IC50 (nM), anti-proliferative effect on LNCaP cells (CellTiter Glo viability) [1]: 1.27 nM

B3: AB-04-mc-val-cit-PAB-MMAE (antibody, human IgG1, V domains shown)
VH: B1 VH with A98G, Y99A, L101T, F102M
VL: B1 VL with Y91F, N92T, S93R
modifications: mc-val-cit-PAB-MMAE (maleimide reagent) conjugated after TCEP reduction; average DAR 3.5 (±0.2); attachment residues not given
IC50 (nM), anti-proliferative effect on C4-2 cells (CellTiter Glo viability) [1]: 0.21 nM
IC50 (nM), anti-proliferative effect on LNCaP cells (CellTiter Glo viability) [1]: 0.67 nM

B4: AB-03-mc-val-cit-PAB-MMAE (antibody, human IgG1, V domains shown)
VH: B1 VH with A98G, Y99G, L101T
VL: B1 VL with Y91F, N92T, S93R
modifications: mc-val-cit-PAB-MMAE (maleimide reagent) conjugated after TCEP reduction; average DAR 3.5 (±0.2); attachment residues not given
IC50 (nM), anti-proliferative effect on C4-2 cells (CellTiter Glo viability) [1]: 0.22 nM
IC50 (nM), anti-proliferative effect on LNCaP cells (CellTiter Glo viability) [1]: 0.7 nM

Kd [2]: 0.224 nM
B5: AB-05 (antibody, human IgG1, V domains shown)
VH: B1 VH
VL: B1 VL with S93A, P95S
notes: Variable domains only; Expressed as human IgG1 (G1m3) / kappa (Km3)

Relative KD [3]: 1.98
Kd [4]: 0.28 nM
B6: AB-02 (antibody, human IgG1, V domains shown)
VH: B1 VH
VL: B1 VL
notes: as for B5

Relative KD [3]: 1.56
Kd [4]: 0.354 nM
B7: AB-04 (antibody, human IgG1, V domains shown)
VH: B1 VH with A98G, Y99A, L101T, F102M
VL: B1 VL with Y91F, N92T, S93R
notes: as for B5

Kd [5]: 0.245 nM
B8: AB-03 (antibody, human IgG1, V domains shown)
VH: B1 VH with A98G, Y99G, L101T
VL: B1 VL with Y91F, N92T, S93R
notes: as for B5

B9: AB-08-mc-val-cit-PAB-MMAE (antibody, V domains shown)
VH: QVQLVESGGGVVQPGRSLRLSCAASGFAFSRYGMHWVRQAPGKGLEWVAVIWYDGSNKYYADSVKGRFTISRDNSKNTQYLQMNSLRAEDTAVYYCARGGDFLYYYYYGMDVWGQGTTVTVSS
VL: DIQMTQSPSSLSASVGDRVTITCRASQGISNYLAWYQQKTGKVPKFLIYEASTLQSGVPSRFSGGGSGTDFTLTISSLQPEDVATYYCQNYNSAPFTFGPGTKVDIK
modifications: mc-val-cit-PAB-MMAE (maleimide reagent) conjugated after TCEP reduction; average DAR 3.5 (±0.2); attachment residues not given
IC50 (nM), anti-proliferative effect on C4-2 cells (CellTiter Glo viability) [1]: 0.31 nM
IC50 (nM), anti-proliferative effect on LNCaP cells (CellTiter Glo viability) [1]: 1.03 nM

B10: AB-09-mc-val-cit-PAB-MMAE (antibody, IgG1, V domains shown)
VH: QVQLVESGGGVVQPGRSLRLSCAASGFTFSNYVMHWVRQAPGKGLEWVAIIWYDGSNKYYADSVKGRFTISRDNSKNTLYLQMNSLRAEDTAVYYCAGGYNWNYEYHYYGMDVWGQGTTVTVSS
VL: DIQMTQSPSSLSASVGDRVTITCRASQGITNYLAWFQQKPGKAPKSLIYAASSLQSGVPSKFSGSGSGTDFSLTISSLQPEDFATYYCQQYNSYPITFGQGTRLEIK
modifications: mc-val-cit-PAB-MMAE (maleimide reagent) conjugated after TCEP reduction; average DAR 3.5 (±0.2); attachment residues not given
IC50 (nM), anti-proliferative effect on C4-2 cells (CellTiter Glo viability) [1]: 0.24 nM
IC50 (nM), anti-proliferative effect on LNCaP cells (CellTiter Glo viability) [1]: 0.89 nM
